The data set addresses Mre11 (PfuMR complex);Rad50 (PfuMR complex) (Pyrococcus furiosus;Pyrococcus furiosus, UniProt Q8U1N9;P58301 1-426;1-882, |). Kind of data set: EMSA. For orientation: Mobility shift assays separate free from complexed probe on a gel.

Experimental findings from article PMC6009593 are described below.

Mre11 (PfuMR complex);Rad50 (PfuMR complex), sequence (P58301 whole entry, one chain of several): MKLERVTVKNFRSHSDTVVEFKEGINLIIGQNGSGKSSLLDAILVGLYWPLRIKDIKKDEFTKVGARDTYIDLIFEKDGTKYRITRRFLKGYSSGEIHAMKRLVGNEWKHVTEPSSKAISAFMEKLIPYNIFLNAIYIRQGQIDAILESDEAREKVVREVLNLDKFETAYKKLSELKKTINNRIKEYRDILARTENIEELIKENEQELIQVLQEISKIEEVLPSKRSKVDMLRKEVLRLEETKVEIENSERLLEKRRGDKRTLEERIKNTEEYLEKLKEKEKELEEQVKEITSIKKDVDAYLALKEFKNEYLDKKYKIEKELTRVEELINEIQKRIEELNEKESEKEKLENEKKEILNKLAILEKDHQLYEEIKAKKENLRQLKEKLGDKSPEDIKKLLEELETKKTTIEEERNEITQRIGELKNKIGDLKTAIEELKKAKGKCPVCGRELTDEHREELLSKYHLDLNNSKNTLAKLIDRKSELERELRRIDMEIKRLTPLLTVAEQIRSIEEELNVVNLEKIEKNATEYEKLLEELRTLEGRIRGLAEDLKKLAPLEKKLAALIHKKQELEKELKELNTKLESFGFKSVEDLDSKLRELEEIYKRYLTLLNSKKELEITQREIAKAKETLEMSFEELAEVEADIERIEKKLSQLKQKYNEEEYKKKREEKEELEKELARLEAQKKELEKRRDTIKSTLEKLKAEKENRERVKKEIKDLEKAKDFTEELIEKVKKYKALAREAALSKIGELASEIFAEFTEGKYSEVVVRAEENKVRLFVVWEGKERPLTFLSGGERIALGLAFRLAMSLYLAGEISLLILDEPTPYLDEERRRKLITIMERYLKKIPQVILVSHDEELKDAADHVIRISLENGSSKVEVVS

B1: S50/50s (dsDNA)
DNA 1: CTGCAGGGTTTTTGTTCCAGTCTGTAGCACTGTGTAAGACAGGCCAGATG
DNA 2: CATCTGGCCTGTCTTACACAGTGCTACAGACTGGAACAAAAACCCTGCAG
modifications: phosphorothioate bonds at the last 5 linkages of the 3' end of strand 2 (CCCsTsGsCsAsG)
As for B1, the binding result is given as “binds”.
